Reference: paper PMC11278340

T1: murine CCL22 (Mus musculus, UniProt O88430 25-92)
T1 sequence: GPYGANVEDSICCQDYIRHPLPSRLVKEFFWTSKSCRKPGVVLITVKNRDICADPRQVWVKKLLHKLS

T2: human CCL22 (Homo sapiens, UniProt O00626 25-93)
T2 sequence: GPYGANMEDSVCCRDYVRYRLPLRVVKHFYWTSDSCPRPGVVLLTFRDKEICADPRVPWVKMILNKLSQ

T3: murine CCL17 (Mus musculus, UniProt Q9WUZ6 24-93)
T3 sequence: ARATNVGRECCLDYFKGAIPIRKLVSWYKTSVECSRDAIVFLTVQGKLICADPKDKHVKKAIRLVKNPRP

B1: AJ102.29 (ssDNA)
DNA: TAGGCGAGTGTGGGTGGGTGGGCGTTCTC
B2: AJ102 (ssDNA)
DNA: GCTGTGTGACTCCTGCAATAGGCGAGTGTGGGTGGGTGGGCGTTCTCAGTGGTTCTCAGTAGCAGCTGTATCTTGTCTCC
B3: AJ82 (ssDNA)
DNA: GCTGTGTGACTCCTGCAAGCTGTGGAGTCGTCGTTCGGGTTATGGGGGATGGGGTTGAGTGGCAGCTGTATCTTGTCTCC

Assays:
murine CCL22 [1] = molecular target: T1, murine CCL22; assay: flow cytometry on CCL22 beads
murine CCL22 [2] = molecular target: T1, murine CCL22; assay: SPR
human CCL17 = human CCL17 (Homo sapiens, UniProt Q92583 24-94); assay: ELONA
human CCL17, sequence (Q92583 24-94): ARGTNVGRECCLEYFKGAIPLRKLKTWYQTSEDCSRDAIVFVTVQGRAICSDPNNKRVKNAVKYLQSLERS

human CCL22 = molecular target: T2, human CCL22; assay: ELONA
murine CCL17 = molecular target: T3, murine CCL17; assay: ELONA

Row | Binder | Kd (murine CCL22 [1]) | Kd (murine CCL22 [2]) | binding result (human CCL17) | binding result (human CCL22) | binding result (murine CCL17)
1 | B1 | 63.6 nM | – | – | – | –
2 | B2 | 147 nM | 10.7 nM | no binding | no binding | no binding
3 | B3 | 146 nM | 24.8 nM | no binding | no binding | no binding
